Test results taken from paper PMC4705684, “DNA binding fluorescent proteins for the direct visualization of large DNA molecules”.

B1: 52-mer random dsDNA (dsDNA)
DNA 1: CTACTAGCACAATCGACTGTACGGACCGATCGAGTCACTAGCAGTCTAGCAA
DNA 2: TTGCTAGACTGCTAGTGACTCGATCGGTCCGTACAGTCGATTGTGCTAGTAG

How the values were obtained:
[1] = system: FP(eGFP)-DBP (synthetic construct; expressed in E. coli BL21 (DE3)); experiment: EMSA; conditions: EMSA: 1x TE (10 mM Tris, 1 mM EDTA, pH 8.0) with 50% (v/v) glycerol, 10 ul, DNA stock ~31.4 nM, protein stocks 74 nM-148 uM, 0.5x TBE 4-20% PAGE, temperature …
DBP peptide KWKWKKA = target: T1, DBP peptide KWKWKKA (synthetic construct); experiment: UV absorbance quenching at 260 nm; stoichiometry 3 bp per DBP; EMSA: 1x TE (10 mM Tris, 1 mM EDTA, pH 8.0) with 50% (v/v) glycerol, 10 ul, DNA stock ~31.4 nM, protein stocks 74 nM-148 uM, 0.5x TBE 4-20% PAGE, temperature not stated; spectra in 1x TE; imaging in TE pH 8.0; conditions: label: none (EtBr post-stain in EMSA); blunt
T1 chain: KWKWKKA

| Molecule | Kd [1] [µM] | binding result (DBP peptide KWKWKKA) |
| --- | --- | --- |
| CTACTAGCACAATCGACTGTACGGACCGATCGAGTCACTAGCAGTCTAGCAA (double strand) [52-mer random dsDNA] | 14.7 |  |
| B1 |  | binds |
